Key:
Test in all cases: purified protein
Details in all cases: amino acid-dependent exchange of 32P from PPi into ATP
purified protein [1] = substrate: CCC[C@H]1CN[C@H](C(=O)O)C1; format: biochemical, Streptomyces lincolnensis
purified protein [2] = substrate: O=C(O)[C@@H]1CCCN1
purified protein [3] = substrate: CCCCC[C@H]1CN[C@H](C(=O)O)C1; format: biochemical, Streptomyces caelestis
purified protein [4] = substrate: CCC[C@H]1CN[C@H](C(=O)O)C1; format: biochemical, Streptomyces caelestis

Protein	Km (purified protein [1])	kcat (purified protein [1])	kcat/Km (purified protein [1])	Km (purified protein [2])	other results
LmbC (Streptomyces lincolnensis; I300L) (protein, full-length stand-alone A-domain, C-terminal His8 tag kept, pET42b (plmbC1), E. coli BL21(DE3)) MSSSVRLSTLLASAAEARPEAPAVLGETRLPVTYGELAARAGGIQAALAGLGVRAGDRVALLSGRTDADAVAAVHAILAAGAVYVPLDAASPPARWASVSRVCAPTAVVGERALLDRFAAAVPGPRRLALPSDGDELPAGRLDPVRSDGTDVAYLLTTSGSTGVPKCVAHTGAGAVAFLEWMVGAFPVGGDDVFACHAPLHFDVSVASVLGSALGGAALAPVPRELSGFPVELATWIAERAVTVWLSVPYPLARLSGLEERAARERLATLRTVVFAGDVFPHQRLAALMRCAPGARFLNLYGPTETNGCTYEVVDAPPAGPVPIGRPVECAECWVEDDDGRPVDAVGSVGELVVAGPTVAAGYWGVEGHGAERFRTGETCPGGRAYATGDQVRVLPGGRYAFLGRMDNMIKMRGQRFELEEVENAVRLAPGVEDCCVVKVDVRDDHSRLLAVVVGPGAGDPRTLREHCLTRLPSWAVPHRFLTAAALPLGSTGKVDRRALREELVTRGE	0.24 ± 0.009 mM	0.75 ± 0.00833 s⁻¹	3080 M⁻¹ s⁻¹		
LmbC (Streptomyces lincolnensis; A207F) (protein, full-length stand-alone A-domain, C-terminal His8 tag kept, pET42b (plmbC1), E. coli BL21(DE3)) MSSSVRLSTLLASAAEARPEAPAVLGETRLPVTYGELAARAGGIQAALAGLGVRAGDRVALLSGRTDADAVAAVHAILAAGAVYVPLDAASPPARWASVSRVCAPTAVVGERALLDRFAAAVPGPRRLALPSDGDELPAGRLDPVRSDGTDVAYLLTTSGSTGVPKCVAHTGAGAVAFLEWMVGAFPVGGDDVFACHAPLHFDVSVFSVLGSALGGAALAPVPRELSGFPVELATWIAERAVTVWLSVPYPLARLSGLEERAARERLATLRTVVFAGDVFPHQRLAALMRCAPGARFLNIYGPTETNGCTYEVVDAPPAGPVPIGRPVECAECWVEDDDGRPVDAVGSVGELVVAGPTVAAGYWGVEGHGAERFRTGETCPGGRAYATGDQVRVLPGGRYAFLGRMDNMIKMRGQRFELEEVENAVRLAPGVEDCCVVKVDVRDDHSRLLAVVVGPGAGDPRTLREHCLTRLPSWAVPHRFLTAAALPLGSTGKVDRRALREELVTRGE	8.6 ± 1 mM	0.0733 ± 0.005 s⁻¹	8.5 M⁻¹ s⁻¹		
LmbC (Streptomyces lincolnensis; G308V) (protein, full-length stand-alone A-domain, C-terminal His8 tag kept, pET42b (plmbC1), E. coli BL21(DE3)) MSSSVRLSTLLASAAEARPEAPAVLGETRLPVTYGELAARAGGIQAALAGLGVRAGDRVALLSGRTDADAVAAVHAILAAGAVYVPLDAASPPARWASVSRVCAPTAVVGERALLDRFAAAVPGPRRLALPSDGDELPAGRLDPVRSDGTDVAYLLTTSGSTGVPKCVAHTGAGAVAFLEWMVGAFPVGGDDVFACHAPLHFDVSVASVLGSALGGAALAPVPRELSGFPVELATWIAERAVTVWLSVPYPLARLSGLEERAARERLATLRTVVFAGDVFPHQRLAALMRCAPGARFLNIYGPTETNVCTYEVVDAPPAGPVPIGRPVECAECWVEDDDGRPVDAVGSVGELVVAGPTVAAGYWGVEGHGAERFRTGETCPGGRAYATGDQVRVLPGGRYAFLGRMDNMIKMRGQRFELEEVENAVRLAPGVEDCCVVKVDVRDDHSRLLAVVVGPGAGDPRTLREHCLTRLPSWAVPHRFLTAAALPLGSTGKVDRRALREELVTRGE	5.8 ± 0.6 mM	0.0065 ± 0.000333 s⁻¹	1.17 M⁻¹ s⁻¹		
LmbC (Streptomyces lincolnensis; V274C) (protein, full-length stand-alone A-domain, C-terminal His8 tag kept, pET42b (plmbC1), E. coli BL21(DE3)) MSSSVRLSTLLASAAEARPEAPAVLGETRLPVTYGELAARAGGIQAALAGLGVRAGDRVALLSGRTDADAVAAVHAILAAGAVYVPLDAASPPARWASVSRVCAPTAVVGERALLDRFAAAVPGPRRLALPSDGDELPAGRLDPVRSDGTDVAYLLTTSGSTGVPKCVAHTGAGAVAFLEWMVGAFPVGGDDVFACHAPLHFDVSVASVLGSALGGAALAPVPRELSGFPVELATWIAERAVTVWLSVPYPLARLSGLEERAARERLATLRTVCFAGDVFPHQRLAALMRCAPGARFLNIYGPTETNGCTYEVVDAPPAGPVPIGRPVECAECWVEDDDGRPVDAVGSVGELVVAGPTVAAGYWGVEGHGAERFRTGETCPGGRAYATGDQVRVLPGGRYAFLGRMDNMIKMRGQRFELEEVENAVRLAPGVEDCCVVKVDVRDDHSRLLAVVVGPGAGDPRTLREHCLTRLPSWAVPHRFLTAAALPLGSTGKVDRRALREELVTRGE	0.39 ± 0.04 mM	0.65 ± 0.0167 s⁻¹	1670 M⁻¹ s⁻¹		
LmbC (Streptomyces lincolnensis; L246Y) (protein, full-length stand-alone A-domain, C-terminal His8 tag kept, pET42b (plmbC1), E. coli BL21(DE3)) MSSSVRLSTLLASAAEARPEAPAVLGETRLPVTYGELAARAGGIQAALAGLGVRAGDRVALLSGRTDADAVAAVHAILAAGAVYVPLDAASPPARWASVSRVCAPTAVVGERALLDRFAAAVPGPRRLALPSDGDELPAGRLDPVRSDGTDVAYLLTTSGSTGVPKCVAHTGAGAVAFLEWMVGAFPVGGDDVFACHAPLHFDVSVASVLGSALGGAALAPVPRELSGFPVELATWIAERAVTVWYSVPYPLARLSGLEERAARERLATLRTVVFAGDVFPHQRLAALMRCAPGARFLNIYGPTETNGCTYEVVDAPPAGPVPIGRPVECAECWVEDDDGRPVDAVGSVGELVVAGPTVAAGYWGVEGHGAERFRTGETCPGGRAYATGDQVRVLPGGRYAFLGRMDNMIKMRGQRFELEEVENAVRLAPGVEDCCVVKVDVRDDHSRLLAVVVGPGAGDPRTLREHCLTRLPSWAVPHRFLTAAALPLGSTGKVDRRALREELVTRGE	33 ± 6 mM	0.00617 ± 0.0005 s⁻¹	0.183 M⁻¹ s⁻¹	54 ± 2 mM	kcat (purified protein [2]): 0.217 s⁻¹; kcat/Km (purified protein [2]): 4 M⁻¹ s⁻¹
CcbC (Streptomyces caelestis; V306G) (protein) MNTSTVRNSLSTLLADTAAATPGATALREPGGDTTYRDLAALAGGIQTALAEAGVRPGDRVAVLAPQTAAAVAAVHAVLSAGAAYVPLDPASPPARWAAVCGMSTPRAVVGTRDALAKLTAELPHLATVDLEAPWPEAPLAPVEREAADLGAVLPTSGSTGVPKGVAISREALLAFASWMVDTFEVGADDVIAGFSPLHFDVSVFSLFGAALTGAALAPAPPQLAGFPHELASWADDAGITVWYSVPYPLARLGTLDAVVLEQRLGRLRCVCFAGEVFPHRQLATLMSKMPWVRYTNLYGPTETNGCTFEQVLAPPDEAIAIGSPACGAECWVERDGERVDTEGAVGELIVAGPTVADGYWGNEDETARRFRFGREYRSGRAYATGDQVRILPDGRYAYLGRQDHMVKIRGQRLELEEVESVLGTADGVTGCCVVAVTPPGRPALLCAAVVGDQLDHAALRSHCRGRLPSWAIPQRFLEVPAIPLTSTGKTDRQEVRRRVMAELV				37 ± 2 mM	
CcbC (Streptomyces caelestis; F205A/V306G/Y244L) (protein, full-length stand-alone A-domain, N-terminal His6 tag kept, pET28b (pccbC), E. coli BL21(DE3)) MNTSTVRNSLSTLLADTAAATPGATALREPGGDTTYRDLAALAGGIQTALAEAGVRPGDRVAVLAPQTAAAVAAVHAVLSAGAAYVPLDPASPPARWAAVCGMSTPRAVVGTRDALAKLTAELPHLATVDLEAPWPEAPLAPVEREAADLGAVLPTSGSTGVPKGVAISREALLAFASWMVDTFEVGADDVIAGFSPLHFDVSVASLFGAALTGAALAPAPPQLAGFPHELASWADDAGITVWLSVPYPLARLGTLDAVVLEQRLGRLRCVCFAGEVFPHRQLATLMSKMPWVRYTNLYGPTETNGCTFEQVLAPPDEAIAIGSPACGAECWVERDGERVDTEGAVGELIVAGPTVADGYWGNEDETARRFRFGREYRSGRAYATGDQVRILPDGRYAYLGRQDHMVKIRGQRLELEEVESVLGTADGVTGCCVVAVTPPGRPALLCAAVVGDQLDHAALRSHCRGRLPSWAIPQRFLEVPAIPLTSTGKTDRQEVRRRVMAELV					Km (purified protein [3]): 2.5 ± 1 mM; kcat (purified protein [3]): 0.000417 ± 5e-05 s⁻¹; kcat/Km (purified protein [3]): 0.167 M⁻¹ s⁻¹; Km (purified protein [4]): 6.4 ± 1 mM; kcat (purified protein [4]): 0.000333 ± 1.67e-05 s⁻¹; kcat/Km (purified protein [4]): 0.05 M⁻¹ s⁻¹
CcbC (Streptomyces caelestis; V306G/Y244L) (protein, full-length stand-alone A-domain, N-terminal His6 tag kept, pET28b (pccbC), E. coli BL21(DE3)) MNTSTVRNSLSTLLADTAAATPGATALREPGGDTTYRDLAALAGGIQTALAEAGVRPGDRVAVLAPQTAAAVAAVHAVLSAGAAYVPLDPASPPARWAAVCGMSTPRAVVGTRDALAKLTAELPHLATVDLEAPWPEAPLAPVEREAADLGAVLPTSGSTGVPKGVAISREALLAFASWMVDTFEVGADDVIAGFSPLHFDVSVFSLFGAALTGAALAPAPPQLAGFPHELASWADDAGITVWLSVPYPLARLGTLDAVVLEQRLGRLRCVCFAGEVFPHRQLATLMSKMPWVRYTNLYGPTETNGCTFEQVLAPPDEAIAIGSPACGAECWVERDGERVDTEGAVGELIVAGPTVADGYWGNEDETARRFRFGREYRSGRAYATGDQVRILPDGRYAYLGRQDHMVKIRGQRLELEEVESVLGTADGVTGCCVVAVTPPGRPALLCAAVVGDQLDHAALRSHCRGRLPSWAIPQRFLEVPAIPLTSTGKTDRQEVRRRVMAELV					Km (purified protein [4]): 24 ± 3 mM; kcat (purified protein [4]): 0.001 ± 5e-05 s⁻¹; kcat/Km (purified protein [4]): 0.0433 M⁻¹ s⁻¹
CcbC (Streptomyces caelestis) (protein) MNTSTVRNSLSTLLADTAAATPGATALREPGGDTTYRDLAALAGGIQTALAEAGVRPGDRVAVLAPQTAAAVAAVHAVLSAGAAYVPLDPASPPARWAAVCGMSTPRAVVGTRDALAKLTAELPHLATVDLEAPWPEAPLAPVEREAADLGAVLPTSGSTGVPKGVAISREALLAFASWMVDTFEVGADDVIAGFSPLHFDVSVFSLFGAALTGAALAPAPPQLAGFPHELASWADDAGITVWYSVPYPLARLGTLDAVVLEQRLGRLRCVCFAGEVFPHRQLATLMSKMPWVRYTNLYGPTETNVCTFEQVLAPPDEAIAIGSPACGAECWVERDGERVDTEGAVGELIVAGPTVADGYWGNEDETARRFRFGREYRSGRAYATGDQVRILPDGRYAYLGRQDHMVKIRGQRLELEEVESVLGTADGVTGCCVVAVTPPGRPALLCAAVVGDQLDHAALRSHCRGRLPSWAIPQRFLEVPAIPLTSTGKTDRQEVRRRVMAELV				0.36 ± 0.03 mM	kcat (purified protein [2]): 0.917 s⁻¹; kcat/Km (purified protein [2]): 2550 M⁻¹ s⁻¹

— article PMC5730197, “Evolution-guided adaptation of an adenylation domain substrate specificity to an unusual amino acid” (PLoS ONE, 2017)
